Measured values taken from PMC8934645.

Biological target: Cas9 from Streptococcus pyogenes (SpyCas9) (Streptococcus pyogenes) (UniProt Q99ZW2)

| Substance | in vitro DNA cleavage by SpyCas9 RNP (256 nM), Acr titrated 0-8192 nM: Acr concentration that inhibits SpyCas9 |
| --- | --- |
| AcrIIA25.1 (natural protein) | 512 nM |
| AcrIIA26 (natural protein) | > 2050 nM |
| AcrIIA27 (natural protein) | > 2050 nM |
| AcrIIA28 (natural protein) | 512 nM |
| AcrIIA32.1 (natural protein) | 512 nM |
